Legend:
Assay in all cases: SPR (Biacore), PEP07843 immobilized, analyte protein injected
hIL-6 = hIL-6 (human, UniProt P05231 29-212)
Method: (§1) In the binding experiment, HBS-EP was used as running buffer and the flow rate was 30 μl/min. […] The analytes, i.e. the panels of 24 or 12 different proteins, were each diluted in HBS-EP or HBS-EP supplemented with 500 mM NaCl to final concentrations of from 0.4 to 250 nM and injected for 5 min. […] The results were analyzed using the BiaEvaluation software.
(§2) The Z-ABD-Z polypeptides were injected over surfaces containing HSA followed by injection of the analyte proteins.

hGM-CSF = hGM-CSF (human, UniProt P04141 18-144)
hGM-CSF, sequence (P04141 18-144 limits assumed): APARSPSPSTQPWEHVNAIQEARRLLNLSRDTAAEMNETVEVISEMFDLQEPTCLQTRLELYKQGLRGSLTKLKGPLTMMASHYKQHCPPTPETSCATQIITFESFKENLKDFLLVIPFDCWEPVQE
Method: as §1, §2

[1] = biological target: T1, human IL-17A/F heterodimer (human, UniProt Q16552 20-155; Q96PD4 31-163, limits assumed)
T1 construct: bought; also called hIL-17A/F
T1 sequence (looked up) 1: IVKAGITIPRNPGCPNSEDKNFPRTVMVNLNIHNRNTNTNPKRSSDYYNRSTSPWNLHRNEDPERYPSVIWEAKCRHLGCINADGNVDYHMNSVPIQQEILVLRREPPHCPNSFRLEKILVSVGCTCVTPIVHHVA
T1 sequence (looked up) 2: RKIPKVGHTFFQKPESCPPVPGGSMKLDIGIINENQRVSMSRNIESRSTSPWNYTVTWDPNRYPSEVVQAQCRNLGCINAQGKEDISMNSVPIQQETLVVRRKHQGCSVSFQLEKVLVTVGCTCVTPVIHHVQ
Method: as §1, §2

hIL-1beta = hIL-1beta (human, UniProt P01584 117-269)
Method: as §1, §2

IL-17RA = biological target: T2, IL-17RA (UniProt Q96F46 33-320)
T2 sequence (looked up): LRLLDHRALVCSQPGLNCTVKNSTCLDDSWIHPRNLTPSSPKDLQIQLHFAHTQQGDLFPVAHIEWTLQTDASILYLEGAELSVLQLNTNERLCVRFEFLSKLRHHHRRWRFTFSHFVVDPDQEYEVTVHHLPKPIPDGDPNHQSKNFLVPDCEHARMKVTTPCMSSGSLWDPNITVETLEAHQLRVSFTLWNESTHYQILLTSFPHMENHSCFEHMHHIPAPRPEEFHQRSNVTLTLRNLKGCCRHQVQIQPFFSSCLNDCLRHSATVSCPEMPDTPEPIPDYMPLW
Method: as §1, §2

human IL-17F = biological target: T3, human IL-17F (human, UniProt Q96PD4 31-163)
T3 construct: R&D Systems cat. no; 1335-IL/CF; also called hIL-17F
T3 sequence: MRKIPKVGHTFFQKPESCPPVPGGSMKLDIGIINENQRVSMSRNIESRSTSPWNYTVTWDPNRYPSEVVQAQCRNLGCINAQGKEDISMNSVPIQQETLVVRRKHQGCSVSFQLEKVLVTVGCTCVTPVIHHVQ
Method: as §1, §2

[2] = biological target: Transthyretin/TTR/Prealbumin/PALB Protein (UniProt P02766 21-147)
Method: as §1, §2

human IL-17A = biological target: T4, human IL-17A (human, UniProt Q16552 20-155)
T4 construct: Peprotech cat. no; 200-17; homodimeric cytokine; biotinylated with Sulfo-NHS-LC-Biotin for the ELISAs; also called hIL-17A; rhIL-17A
T4 sequence: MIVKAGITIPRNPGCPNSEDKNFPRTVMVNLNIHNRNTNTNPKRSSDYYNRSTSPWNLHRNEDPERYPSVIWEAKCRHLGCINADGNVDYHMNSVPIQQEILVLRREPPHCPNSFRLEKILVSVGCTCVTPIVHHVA
Method: as §1, §2

[3] = biological target: T5, Haptoglobin Human (seems to be beta chain) (human, UniProt P00738 162-406, limits assumed)
T5 sequence (looked up): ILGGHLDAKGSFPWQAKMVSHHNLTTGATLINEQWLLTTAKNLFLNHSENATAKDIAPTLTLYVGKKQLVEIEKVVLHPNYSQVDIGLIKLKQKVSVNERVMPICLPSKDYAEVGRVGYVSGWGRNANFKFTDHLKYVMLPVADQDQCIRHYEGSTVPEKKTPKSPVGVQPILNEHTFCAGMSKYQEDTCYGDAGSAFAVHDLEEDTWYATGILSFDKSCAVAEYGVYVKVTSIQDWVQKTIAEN
Method: as §1, §2

hIL-17B = biological target: T6, hIL-17B (human, UniProt Q9UHF5 21-180)
T6 sequence (looked up): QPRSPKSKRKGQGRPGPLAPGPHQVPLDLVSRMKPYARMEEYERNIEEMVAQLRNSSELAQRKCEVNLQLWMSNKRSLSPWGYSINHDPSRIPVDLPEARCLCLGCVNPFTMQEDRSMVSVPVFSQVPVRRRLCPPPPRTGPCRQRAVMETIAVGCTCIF
Method: as §1, §2

GSSLAEAKEAANAELDSYGVSDFYKRLIDKAKTVEGVEALKDAILAALP (designed binder) [ABD variant PEP07843]
binding result (hIL-6): no binding (tested: 50, 250 nM)
binding result (hGM-CSF): no binding (tested: 50, 250 nM)
binding result [1]: no binding (tested: 50, 250 nM)
binding result (hIL-1beta): no binding (tested: 50, 250 nM)
binding result (IL-17RA): no binding (tested: 50, 250 nM)
binding result (human IL-17F): no binding (tested: 50, 250 nM)
binding result [2]: no binding (tested: 50, 250 nM)
binding result (human IL-17A): no binding (tested: 2, 10, 50 nM)
binding result [3]: no binding (tested: 50, 250 nM)
binding result (hIL-17B): no binding (tested: 50, 250 nM)

From US20250101074A1 (Affibody, published 2025)
